In patent US11672767:

T1: BMP2-P5SPCP NPs (UniProt P12643)
T1 sequence 1: CGGKGGKFKTGG
T1 sequence 2: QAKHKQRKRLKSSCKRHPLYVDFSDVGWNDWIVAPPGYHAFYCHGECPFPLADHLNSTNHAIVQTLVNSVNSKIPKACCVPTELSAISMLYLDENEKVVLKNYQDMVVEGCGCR

T2: BMP2-PxSPCP NPs (UniProt P12643)
T2 sequence 1: CGGKGGKFKTGG
T2 sequence 2: T1 sequence 2

T3: BMP2-PxSPCP NPs, P12643
T3 chain 1: CGGKGGKFKTGG
T3 chain 2: T1 sequence 2

B1: plasmin secreted by the encapsulated cells (hMSCs) (protein)
chain: KVYLSECKTGNGKNYRGTMSKTKNGITCQKWSSTSPHRPRFSPATHPSEGLEENYCRNPDNDPQGPWCYTTDPEKRYDYCDILECEEECMHCSGENYDGKISKTMSGLECQAWDSQSPHAHGYIPSKFPNKNLKKNYCRNPDRELRPWCFTTDPNKRWELCDIPRCTTPPPSSGPTYQCLKGTGENYRGNVAVTVSGHTCQHWSAQTPHTHNRTPENFPCKNLDENYCRNPDGKRAPWCHTTNSQVRWEYCKIPSCDSSPVSTEQLAPTAPPELTPVVQDCYHGDGQSYRGTSSTTTTGKKCQSWSSMTPHRHQKTPENYPNAGLTMNYCRNPDADKGPWCFTTDPSVRWEYCNLKKCSGTEASVVAPPPVVLLPDVETPSEEDCMFGNGKGYRGKRATTVTGTPCQDWAAQEPHRHSIFTPETNPRAGLEKNYCRNPDGDVGGPWCYTTNPRKLYDYCDVPQCAAPSFDCGKPQVEPKKCPGRVVGGCVAHPHSWPWQVSLRTRFGMHFCGGTLISPEWVLTAAHCLEKSPRPSSYKVILGAHQEVNLEPHVQEIEVSRLFLEPTRKDIALLKLSSPAVITDKVIPACLPSPNYVVADRTECFITGWGETQGTFGAGLLKEAQLPVIENKVCNRYEFLNGRVQSTELCAGHLAGGTDSCQGDSGGPLVCFEKDKYILQGVTSWGLGCARPNKPGVYVRVSRFVTWIEGVMRNN

Columns and labels:
BMP2-P5SPCP NPs = biological target: T1, BMP2-P5SPCP NPs
BMP2-PxSPCP NPs = biological target: T2, BMP2-PxSPCP NPs
BMP2-PxSPCP NPs, P12643 = biological target: T3, BMP2-PxSPCP NPs, P12643

Molecule	cumulative release of BMP2 from NPs co-encapsulated with plasmin in LPELA hydrogel, measured by BMP2 ELISA (BMP2-P5SPCP NPs)	release of BMP2 from NPs co-encapsulated with plasmin in LPELA hydrogel, measured by BMP2 ELISA (BMP2-PxSPCP NPs)	osteogenic activity (peak RUNX2 expression) of hMSCs co-encapsulated with the NPs (BMP2-PxSPCP NPs, P12643)
plasmin	the cumulative release of BMP2 from the encapsulated BMP2-P5SPCP NPs was 60% after 21 days	gradually released to the medium with incubation time at a rate faster than BMP2-PxSP NPs but slower than the free BMP2	–
B1	–	–	The BMP2-PxSPCP NP groups showed significantly higher osteogenic activity compared to non-cleavable BMP2-PxSP NPs
